The source of these data is article doi:10.1101/2020.10.21.348805 (bioRxiv, 2020).

The target in the test is T1, GST-OsDMI3 (rice (Oryza sativa), UniProt Q6AVM3 1-516).
T1 sequence (looked up): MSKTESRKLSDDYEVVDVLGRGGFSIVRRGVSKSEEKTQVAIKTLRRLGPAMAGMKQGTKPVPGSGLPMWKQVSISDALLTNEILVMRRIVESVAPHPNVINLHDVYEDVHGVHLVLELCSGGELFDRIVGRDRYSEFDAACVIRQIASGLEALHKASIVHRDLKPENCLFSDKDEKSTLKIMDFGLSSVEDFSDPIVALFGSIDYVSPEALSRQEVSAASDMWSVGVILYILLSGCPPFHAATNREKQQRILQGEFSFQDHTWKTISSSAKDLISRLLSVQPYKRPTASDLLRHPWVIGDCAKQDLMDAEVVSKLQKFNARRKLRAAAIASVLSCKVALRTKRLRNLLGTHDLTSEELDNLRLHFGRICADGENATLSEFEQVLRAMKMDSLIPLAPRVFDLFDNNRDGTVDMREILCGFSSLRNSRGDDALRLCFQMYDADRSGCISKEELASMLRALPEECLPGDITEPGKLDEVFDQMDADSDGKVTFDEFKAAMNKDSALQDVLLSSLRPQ
In words: pull-down.

B1: His-OsMKK6 (enzyme, rice (Oryza sativa), UniProt Q5QN75 1-355, looked up)
chain: MRGKKPHKELKLSVPAQETPVDKFLTASGTFKDGELRLNQRGLQLISEETADEPQSTNLKVEDVQLSMDDLEMIQVIGKGSGGIVQLVRHKWVGTLYALKGIQMNIQEAVRKQIVQELKINQATQNAHIVLCHQSFYHNGVIYLVLEYMDRGSLADIIKQVKTILEPYLAVLCKQVLEGLLYLHHERHVIHRDIKPSNLLVNRKGEVKITDFGVSAVLASSMGQRDTFVGTYNYMAPERISGSSYDYKSDIWSLGLVILECAIGRFPYIPSEGEGWLSFYELLEAIVDQPPPSAPADQFSPEFCAFISSCIQKDPAERMSASELLNHPFIKKFEDKDLDLRILVESLEPPMNISE
Consider B1, for which the binding result is “binds”.
